Tm data for 66 substances are collected here from the array DNA melting data of Ke et al..

The Tm is the temperature at the midpoint of the melting transition.

This data set is described as follows: melting temperature; melt of duplexes. The settings on record: sodium 0.0675 M; strand 1 µM.
Consider “CGACGTGCGATATGTGCTG+CAGCACATTCCGCACGTCG (((((((((..((((((((+))))))))..)))))))))”, for which the Tm came to 53.8 °C.
With “CGACGTGCCGAATGTGCTG+CAGCACATGCCGCACGTCG ((((((((.(.((((((((+)))))))).).))))))))”, the Tm turned out to be 51.5 °C.
Take “CGACGTGCACCATGTGCTG+CAGCACATGAGGCACGTCG ((((((((..(((((((((+)))))))))..))))))))”: the Tm came to 53.9 °C.
Consider “CGACGTGCCCCATGTGCTG+CAGCACATTCAGCACGTCG ((((((((...((((((((+))))))))...))))))))”, for which the Tm amounted to 47.7 °C.
Turning to “CGACGTGCTCCATGTGCTG+CAGCACATCAGGCACGTCG ((((((((...((((((((+))))))))...))))))))”, the midpoint of thermal melting (Tm) was found to be 48.6 °C.
With “CGACGTGCGCAATGTGCTG+CAGCACATGTTGCACGTCG ((((((((...((((((((+))))))))...))))))))” the figure was 51.5 °C; with “CGACGTGCACCATGTGCTG+CAGCACATCGAGCACGTCG ((((((((.(.((((((((+)))))))).).))))))))”, 45.7 °C.
With “CGACGTGCCTCATGTGCTG+CAGCACATGGGGCACGTCG (((((((((.(((((((((+))))))))).)))))))))” the figure was 61.2 °C; with “CGACGTGCTTGATGTGCTG+CAGCACATTGGGCACGTCG ((((((((...((((((((+))))))))...))))))))”, 50.7 °C; with “CGACGTGCAATATGTGCTG+CAGCACATACAGCACGTCG ((((((((..(((((((((+)))))))))..))))))))”, 50.3 °C.
With “CGACGTGCCGCATGTGCTG+CAGCACATGCCGCACGTCG ((((((((.((((((((((+)))))))))).))))))))” the figure was 58.9 °C; with “CGACGTGCTGGATGTGCTG+CAGCACATACAGCACGTCG ((((((((((.((((((((+)))))))).))))))))))”, 61.4 °C.
Regarding “CGACGTGCGGCATGTGCTG+CAGCACATACCGCACGTCG ((((((((((.((((((((+)))))))).))))))))))”, the Tm was 60 °C.
With “CGACGTGCCTTATGTGCTG+CAGCACATCCTGCACGTCG ((((((((...((((((((+))))))))...))))))))” the figure was 47.2 °C.
For “CGACGTGCGCCATGTGCTG+CAGCACATAAGGCACGTCG ((((((((...((((((((+))))))))...))))))))”, the Tm was found to be 48.6 °C.
“CGACGTGCAATATGTGCTG+CAGCACATCGAGCACGTCG ((((((((...((((((((+))))))))...))))))))”: the Tm was found to be 48.2 °C.
With “CGACGTGCCACATGTGCTG+CAGCACATTTCGCACGTCG ((((((((.(.((((((((+)))))))).).))))))))” the figure was 47.3 °C; with “CGACGTGCAGAATGTGCTG+CAGCACATTAGGCACGTCG ((((((((..(((((((((+)))))))))..))))))))”, 54.1 °C; with “CGACGTGCGATATGTGCTG+CAGCACATATCGCACGTCG (((((((((((((((((((+)))))))))))))))))))”, 64.1 °C.
The result for “CGACGTGCGGCATGTGCTG+CAGCACATAGAGCACGTCG ((((((((...((((((((+))))))))...))))))))” reads 56.4 °C.
The result for “CGACGTGCAAGATGTGCTG+CAGCACATACGGCACGTCG ((((((((...((((((((+))))))))...))))))))” reads 49.2 °C.
As to “CGACGTGCTTAATGTGCTG+CAGCACATTACGCACGTCG ((((((((.((((((((((+)))))))))).))))))))”, the Tm amounted to 54.8 °C.
Take “CGACGTGCCAAATGTGCTG+CAGCACATAATGCACGTCG ((((((((...((((((((+))))))))...))))))))”: the Tm was 48.2 °C.
Take “CGACGTGCCTCATGTGCTG+CAGCACATTCAGCACGTCG ((((((((...((((((((+))))))))...))))))))”: the Tm was determined as 47.9 °C.
“CGACGTGCCGTATGTGCTG+CAGCACATATTGCACGTCG ((((((((..(((((((((+)))))))))..))))))))”: the Tm was determined as 51.5 °C.
With “CGACGTGCGGCATGTGCTG+CAGCACATATAGCACGTCG ((((((((...((((((((+))))))))...))))))))” the figure was 54.7 °C; with “CGACGTGCTTGATGTGCTG+CAGCACATTCAGCACGTCG (((((((((..((((((((+))))))))..)))))))))”, 51.9 °C.
With “CGACGTGCTCTATGTGCTG+CAGCACATCTAGCACGTCG (((((((((..((((((((+))))))))..)))))))))” the figure was 50.6 °C; with “CGACGTGCCCTATGTGCTG+CAGCACATTCAGCACGTCG ((((((((...((((((((+))))))))...))))))))”, 48.8 °C.
With “CGACGTGCTATATGTGCTG+CAGCACATATCGCACGTCG ((((((((.((((((((((+)))))))))).))))))))” the figure was 54.9 °C; with “CGACGTGCAGTATGTGCTG+CAGCACATTCAGCACGTCG ((((((((.(.((((((((+)))))))).).))))))))”, 51.1 °C.
As for “CGACGTGCCGAATGTGCTG+CAGCACATCAGGCACGTCG (((((((((..((((((((+))))))))..)))))))))”, the Tm came out at 55.4 °C.
With “CGACGTGCAAGATGTGCTG+CAGCACATAGCGCACGTCG ((((((((...((((((((+))))))))...))))))))” the figure was 49.8 °C; with “CGACGTGCATTATGTGCTG+CAGCACATAATGCACGTCG (((((((((((((((((((+)))))))))))))))))))”, 60.7 °C.
On to “CGACGTGCCCGATGTGCTG+CAGCACATAAAGCACGTCG ((((((((...((((((((+))))))))...))))))))”, for which the Tm worked out at 49.8 °C.
With “CGACGTGCCCAATGTGCTG+CAGCACATTGGGCACGTCG (((((((((((((((((((+)))))))))))))))))))” the figure was 66 °C.
With “CGACGTGCGGGATGTGCTG+CAGCACATGACGCACGTCG (((((((((..((((((((+))))))))..)))))))))” the figure was 57.6 °C; with “CGACGTGCTTCATGTGCTG+CAGCACATCTTGCACGTCG ((((((((...((((((((+))))))))...))))))))”, 48.3 °C; with “CGACGTGCATCATGTGCTG+CAGCACATGATGCACGTCG (((((((((((((((((((+)))))))))))))))))))”, 64.8 °C.
With “CGACGTGCGAGATGTGCTG+CAGCACATTATGCACGTCG ((((((((...((((((((+))))))))...))))))))”, the Tm is 51.6 °C.
With “CGACGTGCTCTATGTGCTG+CAGCACATAGGGCACGTCG ((((((((.((((((((((+)))))))))).))))))))” the figure was 58.4 °C.
“CGACGTGCTAAATGTGCTG+CAGCACATCTGGCACGTCG ((((((((.(.((((((((+)))))))).).))))))))”: the Tm was 51.1 °C.
With “CGACGTGCGACATGTGCTG+CAGCACATCCCGCACGTCG (((((((((..((((((((+))))))))..)))))))))” the figure was 52.3 °C; with “CGACGTGCTGCATGTGCTG+CAGCACATTTGGCACGTCG ((((((((...((((((((+))))))))...))))))))”, 49.1 °C; with “CGACGTGCGTTATGTGCTG+CAGCACATAGAGCACGTCG ((((((((..(((((((((+)))))))))..))))))))”, 54.6 °C.
The result for “CGACGTGCTACATGTGCTG+CAGCACATACTGCACGTCG ((((((((...((((((((+))))))))...))))))))” reads 49.3 °C; that for “CGACGTGCTACATGTGCTG+CAGCACATTGAGCACGTCG (((((((((..((((((((+))))))))..)))))))))”, 52.8 °C; that for “CGACGTGCGGCATGTGCTG+CAGCACATAAAGCACGTCG ((((((((...((((((((+))))))))...))))))))”, 56 °C.
Take “CGACGTGCGGTATGTGCTG+CAGCACATCGAGCACGTCG ((((((((...((((((((+))))))))...))))))))”: the Tm was found to be 54 °C.
Turning to “CGACGTGCTGAATGTGCTG+CAGCACATGCTGCACGTCG ((((((((.(.((((((((+)))))))).).))))))))”, the Tm was 53.5 °C.
The result for “CGACGTGCGGTATGTGCTG+CAGCACATAACGCACGTCG (((((((((.(((((((((+))))))))).)))))))))” reads 61.4 °C.
The result for “CGACGTGCCCCATGTGCTG+CAGCACATCCGGCACGTCG (((((((((..((((((((+))))))))..)))))))))” reads 51.4 °C; that for “CGACGTGCAAGATGTGCTG+CAGCACATTTTGCACGTCG ((((((((((.((((((((+)))))))).))))))))))”, 57.3 °C; that for “CGACGTGCCATATGTGCTG+CAGCACATCAAGCACGTCG ((((((((...((((((((+))))))))...))))))))”, 48.6 °C.
The result for “CGACGTGCAACATGTGCTG+CAGCACATGTTGCACGTCG (((((((((((((((((((+)))))))))))))))))))” reads 64.5 °C.
Regarding “CGACGTGCGCCATGTGCTG+CAGCACATGTAGCACGTCG ((((((((..(((((((((+)))))))))..))))))))”, the Tm came out at 55.1 °C.
The result for “CGACGTGCTGCATGTGCTG+CAGCACATAGAGCACGTCG (((((((((..((((((((+))))))))..)))))))))” reads 52.3 °C.
The result for “CGACGTGCACAATGTGCTG+CAGCACATAGAGCACGTCG ((((((((.(.((((((((+)))))))).).))))))))” reads 48.4 °C.
The result for “CGACGTGCGTTATGTGCTG+CAGCACATATAGCACGTCG ((((((((..(((((((((+)))))))))..))))))))” reads 54.5 °C; that for “CGACGTGCTGAATGTGCTG+CAGCACATCCAGCACGTCG ((((((((((.((((((((+)))))))).))))))))))”, 57.6 °C.
For the substance “CGACGTGCAACATGTGCTG+CAGCACATTAGGCACGTCG ((((((((...((((((((+))))))))...))))))))”, the Tm was 48.9 °C.
The result for “CGACGTGCTGAATGTGCTG+CAGCACATACAGCACGTCG ((((((((((.((((((((+)))))))).))))))))))” reads 58.6 °C; that for “CGACGTGCATGATGTGCTG+CAGCACATAATGCACGTCG ((((((((((.((((((((+)))))))).))))))))))”, 56 °C; that for “CGACGTGCTTTATGTGCTG+CAGCACATGACGCACGTCG ((((((((.(.((((((((+)))))))).).))))))))”, 47.1 °C.
As for “CGACGTGCCGCATGTGCTG+CAGCACATTGAGCACGTCG ((((((((...((((((((+))))))))...))))))))”, the Tm came to 49.5 °C.
With “CGACGTGCGTCATGTGCTG+CAGCACATACTGCACGTCG ((((((((...((((((((+))))))))...))))))))” the figure was 50.9 °C.
